Data reported in the domain aggregation screens of Martell et al. (2025).

Assay: soluble fraction after stress (log2 fold change); higher = more stays soluble; pooled small domains, quantitative proteomics
Conditions: stress: pH 4
Summary of the method: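 Small protein domains from pooled custom libraries were exposed to pH 4, then quantified with high-throughput quantitative proteomics. The fold change in how much of each domain remains soluble is read as aggregation propensity. It is given as log2, with higher values meaning more stayed soluble.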

| Sequence | soluble fraction (log2) |
| --- | --- |
| HMKSIEVPNLINMTLRKAKIELIDNEFNLDTVIYEYNPNIREGRVSLQIPESGTILKSGSNISIHISKGIP | -0.32 |
| HMRNTPQRRHAILALLSEQGEVSVDALAKRFSTSEVTIRKDLAAMESHGLLLRRYGGAVPMPQELI | 0.0719 |
| HMQIYSQEIYDAQKVLKELGLYTSDLDGLNGPGTKRALRNFQSKSGLNADGVLGPLTKSALDKGEESYITV | -0.0943 |
| HMHNISQTGRRIAGMTQERWAEALDISVESVRLYESGRGMPSDDVATRMVEVSGAPVLGYWH | -1.08 |
| HMGAFAIHTASELSAGMRIRHERFGPGVITGIDTANPASGARIQVDFDNGTSKTLLLSYAKFQI | 0.22 |
| HMKFDVNAAIRAVLNVTVDKGATLERIMKETNLTSDQLVLPIALLMKTERLHFKRSGTHEVYVSVGKAPDK | -0.0868 |
| HMSMLSQERQSLILDIIKEQGSVTVTRLTEILQSSESTVRRDLSYLASKGKINKVHGGATALG | -0.306 |
| HMTGMEASLSKLLQGEQFADLRKALIDKGIRKLEAFKRLNLWVFMNRNRLYSIGQRQTVYSTLQRALASE | 0.085 |
| HMWNLPDPVVRPEGNVTVYENFKNTVEVLNREADLVLKFLQNEFGTSANIDDTGRARLTGSFSTDRVSSVI | -0.529 |
| HMDLIEVLAQDTIKKIYNTYVAYKNKVDVFYVAFSGGKDSIVTLDLVQRTLPHNEFKVLFGDTGM | -0.48 |
| HMSPVKAPLPGVVLDIHVSVGQEVKASDTVVTLEAMKMENAIKAGVDGKVASISVGKGDSVLEGAVLLTI | 0.322 |
| HMTGDIGAEAAKAAALAHAGVTESQTAKMKVDRDWDDGRLEYDVEFDVGRTEYEYTIDGVTGAVLEYEQDI | 0.0208 |
| HMKDMKISTQNILKELATNYPDQTAFRKNVIESTAKSMGYTGKDFYPMLTAETRVKIGTYDLSALLQTV | -0.197 |
| HMQRRHESTPIPADFDYAAVRGLSAEVQQKLERVRPLSIGQAQRIPGMTPAAISLLLVHLERQRRSRV | 0.00221 |
| HMKIQEVDYSTFLNMLNEKSIAQVEIQDNQIAFNSNQEGNKQIYVTGRIEEDTELVNRLQAAGVQFSRV | -0.638 |
| HMDQFMLQSAWLRAVQHVMKHTDDVGTQFAEEARRMHYGEADERPIRGQATSDEARALHDEGIEVMALPI | -0.192 |
| HMAEDGNMTFEEYAKRWLARQVRYAPSTLESYRRMLGRVYPFIGAIPINRLRPIALENLLAELRKRT | -0.0982 |
| HMTMKQVFIETDANVNQKIMLNEKEAHHLFDVLRTSDKETIRVVTNTSQVFLARVQQKPYIYLFDKMTVE | -1.76 |
| HMYHADLIGLEARSTAGDKLGEVNAVYNFGAGDLIEIKMTDGNLEMLPFTRQYVPTVSIKDGFIIVQM | -1.08 |
| HMEPVDYEALRKELMQKVMGLFTQSRDVGIQILSSFGAKKLSDVPDDKLVAFAASVDKALAG | 0.138 |
| HMQSAEMTLDREGQPVQVRVELTGNEARITFLSDQEQTREALDAGMAQLRELLEQQGMVLAGVTV | -0.491 |
| HMSALTELPVKTVNGKKYHYYVVKQHETVYALSKRFGITPEQLIKYNPSAEDGLQIDQELLFPATEI | -0.282 |
| HMGIERTNADTSFSVNVYGKELIITSNKPLVVNIYAIDGTLVRTEQVTIGVNTVSGLPSGIYVVGQQKVVI | -0.752 |
| HMVITEQTVTVKYLYEDDTEAAPEHSETHKTGETFEIESPKIDGFTPDYELITGTIANDDLVYIVRYKTTP | -0.526 |
| HMVVEGMQFDRGYLSQYMVTDNEKMVADLENPYILITDKKISNIQEILPLLESILQSSRPLLIIADD | -0.573 |

| Sequence | soluble fraction (log2) |
| --- | --- |
| HMKPGNFILDLLRTYGQKGTSAQNLMSSSRMFNFSENLIRVTLSRLAARGLIENFERGHYRLAE | 0.0573 |
| HMSENLESEFFGIVVITQTLLQKELRDKPMTVELIRKTVEDVMSKHYSDSSVDKAKVEEELIRRFSTW | -1.75 |
| HMEDSHIYPVSFNGKMRFKLELPVSMNKKEIEEVVLQHEDAQKWLNGQNPKKVIVVPKRIINIV | 0.308 |
| HMEDKFEYQGERKSLIYPTSFSELTEALGVRNMLQSIIDFATRDEDTSGYEEMKERQNEYIQEYL | 0.0125 |
| HMSADDSDDRKGIDAWLTQLLANGSVKATEVYSAADAAGYSKDQAKRAKRRLAIEAVREAMDGPWFWRLD | -0.742 |
| HMKLNKRQYAYQVIRSRILDGTYVPGQRIIIDQIAKEVNSSHIPVREAIHQLESEQLIDYEPNIGAIVKG | 0.181 |
| HMINFLSKREIEVLRLVADGLSNRDVGQYLFISESTVKRHLSTIYEKLAVKSRTQAIDHARRADL | -1.39 |
| HMSNGFFELKTSQQDELIDLIDSHTNFVRTKIEGELITAFLKLPMDAEEFNKLLFTNGIILSHLVKRK | -1.07 |
| HMKVKIFNGMKLVTNSTGLTVDGKPAALDESNADAKTYSQGLYVFIVYQSGKIAVMQDGKFLGYA | 0.301 |
| HMGADGIPGKNGENGETSYVHFAYATSADGKTGFSTTDTVGKTYMGQYADFEKADSEDPTKYRWGKFQGP | ≥ 0.43 |
| HMYSQIGYGSSGSDVRKLQEILNGKGYNLSVDGQFGAKTKSAVRDYQSKNGLSVDGIVGVNTWGKLT | 0.22 |
| HMSTKRQKELLEYVDRFITEHGYGPSYREIMNAIGYKSVSTVAIHIDGLIAKGYLRKRDNSARSLEVV | 0.249 |
| HMKNKFYEEFSDYIFKHTGIHYAEANYYQLDARINKLMKFLETSDENDVLKAIQGGAVKDQRVHQMIVDLA | -1.27 |
| HMALKPKITIEELIRILNESKDLSDSETAKILNKDYTTAKYGKEFTSINVQGARYALDIATNTS | -0.323 |
| HMENLVPVVVATTNIEPRTQITDAMVKVEQIPALGRNESMLEDPALVVGGYATGKIYAGQSFIQPMVSK | 0.192 |
| HMNLVELKHAEEFNTLIIQDIGGRMKPAHTLASELVRKVFHNDDFNGIDPRKVFLSIIENSKVWFNVPFI | -0.361 |
| HMSIPVLKDGTYESWGNEKVYKVGDRVMVGSNGYVAKWWNQDETPEKAIINPNDSPWRPMTESEIMEVLK | -0.113 |
| HMNQLSYTERRVLQVIEGGTTKTGEIEQALAAKMSRPTVHRALDALVGANRIHRLARGEYALGPAP | 0.321 |
| HMQPFTELTPREREILGHLAEGQSNKVIARHLDISDGTVKLHVKAILRKLGVHSRVEAAVMAVEHGIR | 0.4 |
| HMAPVTPEERAQAMEEYKAMVTIEGYTPPKNIIEQNYKRGLWSETMLNMAVTKGAITEAEKLEIMN | 0.0947 |
| HMPIRMLQVQKTNTGYLNVRDTPSVSGALIGKVFPGDMLSSTEERDGWFLVAVPQGGTGWVSGDYVKTTS | 0.0778 |
| HMKDYQGEISVVASGERIDVYLFNYFNLFSRTKIKNHIKNGNILVNENIISPSYILKQNDKIAFNLGAPY | -2.12 |
| HMRTITIDDSIAGKRLDEALTLLGAESSRTKVKLLFSSPNGVLVNGEKEKPHYRVEAGDVIQFGELPKK | -0.104 |
| HMAPRQDIAYYTVKPGDTVLAIAEKFGLQPETLMWSNSIIEQNPDRLSIGDELRILPVDGVLHVVK | -0.666 |
| HMQDTQAEEGETLLDALRRIHPESSTGTLRRMLTQGRVQLDGDSVHAAKTVLSAGQRVEVVAR | 0.088 |

| Sequence | soluble fraction (log2) |
| --- | --- |
| HMIHDSAESVVFPFGKYKGYTLAHVIREHPHYTYWIRDNADFSPLWREAVSLALQNRDIGHLNLPHVK | -0.606 |
| HMEQIETIFLSAAPYARTHIIHLLETSELFRDKYLTIVETSNGLLIYTEDKNRLLGILNSLT | -1.24 |
| HMATHWHITPNPNNGKFLISGLMQDDSFHLMDASGQWLRQLRTVNQELDLDLQPGVYFLKDNSGSVMKFVV | -1.15 |
| HMNVYAGTMINVVGLQVEDAASRLRGLFYSVKIVEEESQEPDGKVLRQNIAEGTKDLEAWTLVELTVSKYV | -0.448 |
| HMKFGEQIKERRQELDLTQAEVAEKLFVTRQAVSNWEHNKTYPDLNMLVKISNVYQISLDSLLR | -0.0339 |
| HMNSFKIYPNPSSREVVRFNQAQDVKVYDTLGKLILSAKNTSAIDTKSFNTGIYFIKTANGLTKKLIV | -0.0877 |
| HMAENTKKWDETGRRYRSYIKLEKRLSENTVESYMRDYMQFAHFILRQWDVAPHKVEPQMVERYMAWLYER | -0.806 |
| HMLILDTDGRYVIKRGDSLSEILEKIANGSNINLNLLKRAFVTANPKAFKRANPNWMYANAR | -0.145 |
| HMSLQDYYQVLGVFYNAGDKEIKRRWKELINQYHPDLAQAKGASPEEIENYTLKMAEINNAYEQIMKSRKA | 0.0253 |
| HMLTLDEKRRLQIMRVQVALTSLGLYNGRVDGVLNAETKLGLEFFQDLKGLPKSGTMTTPTLNALGVPA | -0.347 |
| HMHQLQLDSRSRLHMTGVIEVESFDEATIVLTTTRGTLIVRGENLHLQLLRLDGGEVLVDGTVDSLSYE | -1.22 |
| HMNMNDIKFGKYLKRVRKKYNFSKEYVANILKVKESLVSDWESGRLTLNDEYMEKLSLFYGVNLYKK | -0.123 |
| HMALPDWLDPEAWAAWKRHRKAIRKPLTEDAVALSIRELAKLRDEGYGPTSVIENAILKGWQGLYPPK | 0.143 |
| HMNYTALLNNFSENMKKRRVELSLSQKELASIVGVSVRTIQNYENKKTIPTSAVMESISIALDMGLEKMID | 0.04 |
| HMNQRQKQLLSILEQQGDWMKGKALATLLAVSDRTIRSDIEKINREVEGSILSHPHKGYLLSVENRQIAET | 0.0959 |
| HMSGKGEFDQLLRSGEYVQAFQRANANGNVTLRRQQLLNLARHQAASGVGSGAIESLSTIQRI | 0.104 |
| HMAPRLTERERQVLQLIAEGLTSMQIGDRLHIAASTVDVHRRNLMRKLDLHNVADLTRYAITQGISP | 0.00348 |
| HMVSVLDHIVGIGAKRRQSLWNHFGTIDKIKAASIDELLKAPGMNRPSAEAVYYFFEAQRQLRGK | 0.0106 |
| HMKILNYQSLVGKKGITKSMLRPAGIVEIEGRRYDVVTRGEFIEPGKMITVDEVQGNRIIVQIERE | 0.189 |
| HMVQIQDIAFSEFLNELEKGNILDVNIKGDLINGNMLDGKKFKTYAPYDPSLVEKLSKQNVTINVEPVN | -0.06 |
| HMKRKAIDQSWQPDKEAIEILSKAGVNEEFIKEEIPEFILYWSEKGEESDTWNSKFIAQVRRQWAKTQH | 0.248 |
| HMEITTLTGVLGAGRLDSALAAALPQYSRARIQALISDAALRINGQVVADAGSKKMSGQTFELNIPAPVP | 0.0449 |
| HMIYWGTMVDKIYEVLSLAGKPLSLMEIYQQVKVFFPNSTKSSIEASMRLDARHRFKYDVEGHVYSLVD | -0.368 |
| HMEIGNVIAKLRVSNGLNQREFAKKLEVSNGAVAMWETNKRQPDLEMIKKISNLFDVPTDYILGAGTFQ | 0.152 |
| HMQDFEEILKNAKIEDFKHTQTGEDLKVLKIEDKIEDFKGFNAYLVKNQIAYYSKFARGFVVKNIEKLQGV | 0.155 |
